Each block holds one substance with its values, some of them ahead of it.
Molecular target: T1, hNE (Homo sapiens, UniProt P08246)
T1 sequence (P08246 30-267): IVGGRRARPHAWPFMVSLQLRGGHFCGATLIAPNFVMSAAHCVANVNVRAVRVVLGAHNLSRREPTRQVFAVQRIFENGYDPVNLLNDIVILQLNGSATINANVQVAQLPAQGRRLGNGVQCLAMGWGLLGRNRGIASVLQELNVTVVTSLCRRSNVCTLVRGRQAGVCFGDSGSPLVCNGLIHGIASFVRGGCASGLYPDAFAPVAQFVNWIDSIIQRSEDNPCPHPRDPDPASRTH
Assay: hNE inhibition, hydrolysis of fluorogenic substrate (Ki; standard hNE-inhibition assay)
Format: biochemical
Parameters: concentration or dose not given beside the values
Protocol: Inhibition constants for the proteins reacting with hNE (Ki) were determined using RT measurements of hydrolysis of a fluorogenic substrate (N-methoxysuccinyl-Ala-Ala-Pro-Val-7-amino-4-methylcoumarin, Sigma M-9771) by hNE. For these measurements, aliquots of the appropriately diluted inhibitor stocks were added to 2 ml solutions of 0.847 nM hNE in reaction buffer (50 mM Tris-Cl, pH=8.0, 150 mM NaCl, 1 mM CaCl2, 0.25% Triton-X-100) in plastic fluorescence cuvettes. The reactions were incubated at RT for 30 minutes. At the end of the incubation period, the fluorogenic substrate was added at a concentration of 25 μM and the time course for increase in fluorescence at 470 nm (excitation at 380 nm) due to enzymatic substrate cleavage was recorded using a spectrofluorimeter (Perkin-Elmer 650-15) and strip chart recorder. […] Ki is related to Kapparent by Ki=Kapparent×(1/(1+(S0/Km))). The correction is small compared to the possible errors in Kapparent. Rates of enzymatic substrate cleavage were determined from the linear slopes of the recorded increases in fluorescence. The percent residual activity of hNE in the presence of the inhibitor was calculated as the percentage of the rate of fluorescence increase observed in the presence of the inhibitor to that observed when no added inhibitor was present.
We recorded data used to determine Ki for EPI-HNE-2 and EPI-HNE-3 reacting with hNE. Data obtained as described above are recorded as percent residual activity plotted as a function of added inhibitor. Values for Ki and for active inhibitor concentration in the stock are obtained from a least-squares fit program.

Percent residual hNE activity (10. μl of EPI-HNE-2 solution added): 82.9% | Percent residual hNE activity (20. μl of EPI-HNE-2 solution added): 71.8% | Percent residual hNE activity (30. μl of EPI-HNE-2 solution added): 59.5% | Percent residual hNE activity (40. μl of EPI-HNE-2 solution added): 46.2% | Percent residual hNE activity (50. μl of EPI-HNE-2 solution added): 39.2% | Percent residual hNE activity (55. μl of EPI-HNE-2 solution added): 32.2% | Percent residual hNE activity (60. μl of EPI-HNE-2 solution added): 22.5% | Percent residual hNE activity (65. μl of EPI-HNE-2 solution added): 23.5% | Percent residual hNE activity (70. μl of EPI-HNE-2 solution added): 15.0% | Percent residual hNE activity (75. μl of EPI-HNE-2 solution added): 10.4% | Percent residual hNE activity (80. μl of EPI-HNE-2 solution added): 8.6% | Percent residual hNE activity (85. μl of EPI-HNE-2 solution added): 4.8% | Percent residual hNE activity (90. μl of EPI-HNE-2 solution added): 1.4% | Percent residual hNE activity (95. μl of EPI-HNE-2 solution added): 2.0% | Percent residual hNE activity (100. μl of EPI-HNE-2 solution added): 2.5% | Percent residual hNE activity (120. μl of EPI-HNE-2 solution added): 0.2% | Percent residual hNE activity (150. μl of EPI-HNE-2 solution added): 0.2% | Percent residual hNE activity (200. μl of EPI-HNE-2 solution added): 0.04%
Substance: EPI-HNE-2: EPI-HNE-1 with four additional residues EAEA at the amino terminus, SEQ ID NO 008

Percent residual hNE activity (10. μl of EPI-HNE-3 solution added): 81.6% | Percent residual hNE activity (20. μl of EPI-HNE-3 solution added): 66.9% | Percent residual hNE activity (30. μl of EPI-HNE-3 solution added): 53.4% | Percent residual hNE activity (40. μl of EPI-HNE-3 solution added): 38.0% | Percent residual hNE activity (50. μl of EPI-HNE-3 solution added): 27.6% | Percent residual hNE activity (55. μl of EPI-HNE-3 solution added): 21.5% | Percent residual hNE activity (60. μl of EPI-HNE-3 solution added): 13.0% | Percent residual hNE activity (65. μl of EPI-HNE-3 solution added): 11.0% | Percent residual hNE activity (70. μl of EPI-HNE-3 solution added): 7.9% | Percent residual hNE activity (75. μl of EPI-HNE-3 solution added): 3.8% | Percent residual hNE activity (80. μl of EPI-HNE-3 solution added): 3.3% | Percent residual hNE activity (85. μl of EPI-HNE-3 solution added): 2.1% | Percent residual hNE activity (90. μl of EPI-HNE-3 solution added): 1.8% | Percent residual hNE activity (100. μl of EPI-HNE-3 solution added): 1.6% | Percent residual hNE activity (110. μl of EPI-HNE-3 solution added): 0.8% | Percent residual hNE activity (120. μl of EPI-HNE-3 solution added): 0.7% | Percent residual hNE activity (160. μl of EPI-HNE-3 solution added): 0.6% | Percent residual hNE activity (200. μl of EPI-HNE-3 solution added): 0.2%
Substance: EPI-HNE-3: ITI-D2(3-58) with R15I, I18F, Q19P, L20R; SEQ ID NO 026 (AACNLPIVRGPCIAFFPRWAFDAVKGKCVLFPYGGCQGNGNKFYSEKECREYCGVP; Epi-HNE-3)

Source: patent US20060134087A1, “ITI-D1 Kunitz domain mutants as hNE inhibitors” (Dyax Corp., priority 1988, published 2006)
